In PMC3749969:

Experiments:
[1] = target: Merkel cell polyomavirus major capsid protein VP1 (native virions, isolate R17b) (Merkel cell polyomavirus (MCV), isolate R17b); experiment: co-sedimentation; purified native virions and high-VP2 pseudovirions; SDS-PAGE, SYPRO Ruby stain, densitometry against BSA standards; apparent ratio
[2] = target: Merkel cell polyomavirus major capsid protein VP1 (pseudovirions, codon-modified gene) (Merkel cell polyomavirus (MCV)); experiment: as above

Substance	stoichiometry N (VP2 per 5 VP1) [1]	stoichiometry N (VP2 per 5 VP1) [2]
Merkel cell polyomavirus minor capsid protein VP2 (native virions, isolate R17b) (natural protein)	2	–
Merkel cell polyomavirus minor capsid protein VP2 (pseudovirions, codon-modified gene) (natural protein)	–	1.4
